Results from the RNAGym collection of RNA variant scans (doi:10.7554/elife.80360).

B1: CPEB3 Ribozyme (parent)
chain: GGGGGCCACAGCAGAAGCGUUCACGUCGCGGCCCCUGUCAGAUUCUGGUGAAUCUGCGAAUUCUGCUGU

Variants of: B1
Assay: self-cleavage, relative activity (ratio to wild type); higher = more cleavage; co-transcriptional

Variant	self-cleavage
GGCGGCCACAGCAGAAGCGUUCACGUCGCGGCCCCUGUCAGAUUCUGGUGAAUCUGCGAACUCUGCUGU	0.0948
GGUGGCCACAGCAGAAGCGUUCACGUCGCGGCCCCUGUCAGAUUCUAGUGAAUCUGCGAAUUCUGCUGU	0.192
GGUGGCCACAGCAGAAGCGUUCACGUCGCGGCGCCUGUCAGAUUCUGGUGAAUCUGCGAAUUCUGCUGU	0.0603
GGCGGCCACAGCAGAAGCGUUCACGUCGCGGCCCCUGUCAGAUUCUGGUGAAUCUGCGAAUUCGGCUGU	0.0913
GGUGGCCAAAGCAGAAGCGUUCACGUCGCGGCCCCUGUCAGAUUCUGGUGAAUCUGCGAAUUCUGCUGU	0.655
GGUGGCCAUAGCAGAAGCGUUCACGUCGCGGCCCCUGUCAGAUUCUGGUGAAUCUGCGAAUUCUGCUGU	0.521
GGUGGCCACAGCAGAAGCGUUCACGUCGCGGCCCCUGACAGAUUCUGGUGAAUCUGCGAAUUCUGCUGU	0.22
GGUGGCCACAGCAGAAGCGUUCACGUCGCGGCCCCUGUCAGAUUCUGGUUAAUCUGCGAAUUCUGCUGU	0.171
GGUGGCCACAGCAGAAGCGUUCACGUCGCGGCCCCUGUCAGAUUCUGGUAAAUCUGCGAAUUCUGCUGU	0.172
GGUGGCCACAGCAGAAGCCUUCACGUCGCGGCCCCUGUCAGAUUCUGGUGAAUCUGCGAAUUCUGCUGU	0.0665
GGUGGCCACAGCAGAAGCGUUCACGUCGCGGCCCCUGUCAGAUUCUGGUGAAUCUGCGAAUUCUGCUCU	0.548
GGUGGCCACAGCAGAAGCGUUCACGUCGCGGCCCCUGUCAGAUUCUGGUGAAUCUGCGAAUUCUGCUUU	0.546
GGUGGACACAGCAGAAGCGUUCACGUCGCGGCCCCUGUCAGAUUCUGGUGAAUCUGCGAAUUCUGCUGU	0.0458
GGUGGCCACAGCAGAAGCGUUCACGUCGCGGCCCCUGUCAGAUUGUGGUGAAUCUGCGAAUUCUGCUGU	0.112
GGUGGCCACAGCAGAAGCGUUCACGUCGCGGCCCCUGUCAGAUUAUGGUGAAUCUGCGAAUUCUGCUGU	0.105
GGGAGCCACAGCAGAAGCGUUCACGUCGCGGCCCCUGUCAGAUUCUGGUGAAUCUGCGAAUUCUGCUGU	0.898
GGUGGCCACAGCAGAAGCGUUCACGUCGCGGCCCCUGUCAGCUUCUGGUGAAUCUGCGAAUUCUGCUGU	0.0373
GGUGGCCACAGCAGAAGCGUUCACGUCGCGGCCCCUGUCAGGUUCUGGUGAAUCUGCGAAUUCUGCUGU	0.11
GGUGGCCACAGCAGAAGCGUUCACGUCGCGGCCCCUGUCAGUUUCUGGUGAAUCUGCGAAUUCUGCUGU	0.0748
GGUGGCCACAGCAGAAGCGUUCACAUCGCGGCCCCUGUCAGAUUCUGGUGAAUCUGCGAAUUCUGCUGU	0.046

Variant	self-cleavage
GGUGGCCACAGCAGAAGCGUUCACUUCGCGGCCCCUGUCAGAUUCUGGUGAAUCUGCGAAUUCUGCUGU	0.0356
GGUGGCCACAGCAGAAGAGUUCACGUCGCGGCCCCUGUCAGAUUCUGGUGAAUCUGCGAAUUCUGCUGU	0.0631
GGUGGCCACAGCAGAAGGGUUCACGUCGCGGCCCCUGUCAGAUUCUGGUGAAUCUGCGAAUUCUGCUGU	0.0415
GGUGGCCACAGCAGAAGUGUUCACGUCGCGGCCCCUGUCAGAUUCUGGUGAAUCUGCGAAUUCUGCUGU	0.0757
GGUGGCCACAGCAGAAGCGUUCACGUCGCGGCCCCUGUCAGAUUCUGGUGGAUCUGCGAAUUCUGCUGU	0.0734
GGUGGCCACAGCAGAAGCGUUCACGUCGCGGCCCCUGUCAGAGUCUGGUGAAUCUGCGAAUUCUGCUGU	0.0687
GGUGGCCACAGCAGAAGCGUUCACGUCGCGGCCCCUGUCAGAUUCUGGUGAAUCUGCGAAUUCUGAUGU	0.0783
GGUGGCCACAGCAGAAGCGUUCACGUCGCGGCCCUUGUCAGAUUCUGGUGAAUCUGCGAAUUCUGCUGU	0.0525
GGCGGCCACAGCAGAAGCGUUCACGUCGCGGCCCCUGUCAGAUUCUGGUGAAUCUGCGAAUACUGCUGU	0.0658
GGUGGCCACAGCAGAAGCGUUCACGUCGCGGCCCCUGUCAGAUUCUGGGGAAUCUGCGAAUUCUGCUGU	0.0811
GGUGGCCACAGCAGAAGCGUUCACGUCGCGGCCCCUGUCCGAUUCUGGUGAAUCUGCGAAUUCUGCUGU	0.0469
GGUGGCCACAGCAGAAGCGUUCACGUCGCGGGCCCUGUCAGAUUCUGGUGAAUCUGCGAAUUCUGCUGU	0.054
GGUGGCCACAGCAGAAGCGUUCACGUCGCGGACCCUGUCAGAUUCUGGUGAAUCUGCGAAUUCUGCUGU	0.0393
GGUGGCCACAGCAGAAGCGUUCACGUCGCGGCCCCUGUCAGAUUCUGGUGAAUCUGCGAAUUCUGCGGU	0.312
GGUGGCCACAGCAGAAGCGUUCACGUCGCGGCCCCUGUCAGAUUCUGGUGAAUCUGCGAAUUCUGCCGU	0.317
GGUGGCCACAGCAGAAGCGUUCACGUCGCGGCCCCUGUCAGAUUCUGGUGAAUCUGCGAAUUCUUCUGU	0.101
GGUGGCCACAGCAGAAACGUUCACGUCGCGGCCCCUGUCAGAUUCUGGUGAAUCUGCGAAUUCUGCUGU	0.0459
GGUGGCCACAGCAGAAGCGUUCACGUCGCGGCCCCAGUCAGAUUCUGGUGAAUCUGCGAAUUCUGCUGU	0.0376
GGUGGCCACAGCAGAAGCGUUCACGUAGCGGCCCCUGUCAGAUUCUGGUGAAUCUGCGAAUUCUGCUGU	0.0666
